Earlier results on 1 substance are cited in paper PMC3197213.

In general, Kd refers to the free concentration of one partner at which half of the binding sites on the other are occupied at equilibrium, for simple one-to-one binding.

The target of the data set is syntaxin-1 SNARE motif (Rattus norvegicus) (UniProt P32851).
syntaxin-1 SNARE motif (Rattus norvegicus), sequence (P32851 191-253): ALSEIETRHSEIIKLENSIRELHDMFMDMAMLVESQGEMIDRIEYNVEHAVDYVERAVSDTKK

For “Munc13-1 MUN domain (from UniProt Q62768)”, the Kd is 46 µM.
